Here are results for nine sequences from the DeepSol protein solubility set.

The data set can be described thus: soluble on expression in E. coli; label from the status in PepcDB or PDB records.
With “SNAYRGPEAFLKLPKDLKDREALQDIMQDIGNSDDILAAVVLSATPGAVEAFRKNGETIRITGDGLKAAHRFLSNDPKIGEKRIRPGALIRVKKTEKGSWQIVQLP”, the “soluble on expression in E. coli” value is given as “soluble”. Take “MGSDKIHHHHHHMEQNRFKKETKTCSASWPRAPQSTLCATDRLELTYDVYTSAERQRRSRTATRLNLVFLHGSGMSKVVWEYYLPRLVAADAEGNYAIDKVLLIDQVNHGDSAVRNRGRLGTNFNWIDGARDVLKIATCELGSIDSHPALNVVIGHSMGGFQALACDVLQPNLFHLLILIEPVVITRKAIGAGRPGLPPDSPQIPENLYNSLRLKTCDHFANESEYVKYMRNGSFFTNAHSQILQNIIDFERTKASGDDEDGGPVRTKMEQAQNLLCYMNMQTFAPFLISNVKFVRKRTIHIVGARSNWCPPQNQLFLQKTLQNYHLDVIPGGSHLVNVEAPDLVIERINHHIHEFVLTSPLQSSHIPQLTLEERAVMFDRAFDSFKNEALVKTTKQKL”: the “soluble on expression in E. coli” value is on record as “not soluble”. Next, “MGSDKIHHHHHHMRLSNGDVIVFAGDSITDREKSNNAPLGYGYVNLFYNLMLAKHPETKITVINSGISGNTVIDLIDRWDDDVLSYKPNWISILIGINDLHKFLGGLTTFNPENYYENLRRLLKYTRKVLNNVNFILMTPFYISRNKLEGGFRAKVLELLPQYIEKVRLLSNEFSATYIDLHDTFKKLVNIREPNVYAPEPVHPNFTGHMVIALKLLEALEI”: “not soluble”; “MQERHTEQDYRALLIADTPIIDVRAPIEFEQGAMPAAINLPLMDNDERASVGTCYKQQGSDAALALGHKLVAGEIRQQRMYAWRAACLQNPQGILCCARGGQRSHIVQRWLHEAGIDYPLVEGGYKALRQTAIQATIELAQKPIVLIGGCTGSGKTLLVQQQPNGVDLEGLARHRGSAFGRTLQPQLSQASFENLLAAEMLKTDARQDLRLWVLEDESRMIGSNHLPECLRERMTQAAIAVVEDPFEIRLERLNEEYFLRMHHDFTHAYGDEQGWQEYCEYLHHGLSAIKRRLGLQRYNELAAQLDTALTTQLTTGSTDGHLAWLVPLLKEYYDPMYRYQLEKKAEKVVFRGEWAEVAVWVKAQLEHHHHHH”: “not soluble”. The value for “MLQSLKDVAKQAPVHRKLDIQEWKTAEGAKVLFVEAHELPMFDLRLTFAAGSSQDAGTPGLSMLTNAMLNEGVPGKDTTAIAAGFEDLGASFSNGSYRDMAVAGLRSLSEADKRTQALKLFEQVIGQPTFPEDALARIKNQVLAGFEYQKQNPGKLAGLELFKRLYGEHPYAHSSDGDEKSVPTISREQLQAFHKKAYAAGNVVIALVGDLSRQEAEAIAAEVSKALPQGPALAKTLEHHHHHH” was “soluble”. The value for “KDETVGVGVLSEPHARLLEIAKEEVKKQHIELRIVEFTNYVALNEAVMRGDILMNFFQHVPHMQQFNQEHNGDLVSVGNVHVEPLALYSRTYRHVSDFPAGAVIAIPNDSSNEARALRLLEAAGFIRMRAGSGLFATVEDVQQNVRNVVLQEVESALLPRVFDQVDGAVINGNYAIMAGLSARRDGLAVEPDASAYANVLVVKRGNEADARVQAVLRALCGGRVRTYLKERYKGGEVAPAL” was “soluble”; that for “MSLIYSSENDYSILEDKTATGKKRDWKGKKRRTNLMAEHYEALESKIGAPYYGKKAEKLISCAEYLSFKRDPETGKLKLYQAHFCKVRLCPMCAWRRSLKIAYHNKLIVEEANRQYGCGWIFLTLTIRNVKGERLKPQISAMMEGFRKLFQYKKVKTSVLGFFRALEITKNHEEDTYHPHFHVLIPVRKNYFGKNYIKQAEWTSLWKKAMKLDYTPIVDIRRVKGKAKIDAEQIENDVRNAMMEQKAVLEISKYPVKDTDVVRGNKVTEDNLNTVLYLDDALAARRLIGYGGILKEIHKELNLGDAEDGDLVKIEEEDDEVANGAFEVMAYWHPGIKNYIIKEGHHHHHH” was “soluble”. “MDRMDKAAKINIINANVRNAQTGDYYYNPYKIVNKTFTDTDGKQVTLKIGITGVLPTQILVWDKANLEGKVTVDDPMEAVKTIVPQMKAAGADFILVAAHSGIGDNEYTKNEENEGYQIAGIEGVDAVATGHSHADFPNGDGTSFYAKYPGVDDVNGLINGKPVVMAGKFGDHLGIMDVKLTYTDGKWKVVNSKAKLEKIDTKSDIADKALIDMAAHDHDGTILTMFVRKLVRPL”: the “soluble on expression in E. coli” value is “not soluble”. The value for “MIASLDELYHSELFFLPVMDENARLVGLEIIATFAAEDGAVRMPTELVAPRLSVEEQYCLFVEKLALLETCQHFFIQHKLIAWLNLPPAISDLLLLDSELFSRAARFPFLELAINENYPGLNQGKNNETLANLAMHFPLMLANFGAGEASTKAIFDGLFKRVMLDKNFIQQRAEMISFEPFMHAIVAQISSSCESLMIAGIDTEAMFARAAPLGFSAFQGGLWPPVPVSQLIKLVQR” was “not soluble”.
